# Measured values taken from patent US20240132578A1.
# Legend:
# Experiment in all cases: cell-based or functional assay
# [1] = molecular target: HIV-1 JR-CSF Env V292A (HIV-1 (isolate JR-CSF, clade B)) (UniProt P20871)
# [2] = molecular target: HIV-1 JR-CSF Env R327A (HIV-1 isolate JR-CSF) (UniProt P20871)
# [3] = molecular target: HIV-1 JR-CSF Env P299A (HIV-1 (isolate JR-CSF, clade B)) (UniProt P20871)
# [4] = molecular target: HIV-1 JR-CSF Env T341A (HIV-1 isolate JR-CSF) (UniProt P20871)
# [5] = molecular target: HIV-1 JR-CSF Env D325A (HIV-1 isolate JR-CSF) (UniProt P20871)
# [6] = molecular target: HIV-1 envelope glycoprotein (Env) of isolate JR-FL, on pseudovirus (HIV-1)
# [7] = molecular target: HIV-1 envelope glycoprotein (Env) of isolate 92BR020, on pseudovirus (HIV-1)
# [8] = molecular target: HIV-1 MGRM-AG-005 Env (HIV-1)
# [9] = molecular target: HIV-1 Env of isolate MGRM-F1-014 (pseudovirus) (HIV-1)
# HIV-1 APV13 Env (HIV-1) = molecular target: HIV-1 APV13 Env (HIV-1)
# [10] = molecular target: HIV-1 MGRM-D-001 Env (HIV-1)
# [11] = molecular target: HIV-1 JR-CSF Env K305A (HIV-1 (isolate JR-CSF, clade B)) (UniProt P20871)
# [12] = molecular target: HIV-1 JR-CSF Env H330A (HIV-1 isolate JR-CSF) (UniProt P20871)
# [13] = molecular target: HIV-1 MGRM-A-010 envelope glycoprotein (Env) on pseudovirus (HIV-1)
# [14] = molecular target: HIV-1 92UG024 envelope glycoprotein (Env) on pseudovirus (HIV-1)
# [15] = molecular target: HIV-1 APV6 envelope glycoprotein (Env) on pseudovirus (HIV-1)
# [16] = molecular target: HIV-1 APV13 envelope glycoprotein (Env) on pseudovirus (HIV-1)
# [17] = molecular target: HIV-1 MGRM-C-028 envelope glycoprotein (Env) on pseudovirus (HIV-1)
# [18] = molecular target: HIV-1 NL43 envelope glycoprotein (Env) on pseudovirus (HIV-1)
# [19] = molecular target: HIV-1 APV17 envelope glycoprotein (Env) on pseudovirus (HIV-1)
# [20] = molecular target: HIV-1 MGRM-D-001 envelope glycoprotein (Env) on pseudovirus (HIV-1)
# [21] = molecular target: HIV-1 Env of isolate MGRM-A-013 (pseudovirus) (HIV-1)
# [22] = molecular target: HIV-1 envelope glycoprotein (Env) of isolate 92UG031 (HIV-1)
# [23] = molecular target: HIV-1 Env of isolate MGRM-F1-006 (subtype F) (HIV-1)
# [24] = molecular target: HIV-1 Env of isolate MGRM-Chronic-B-008 (subtype B), on pseudovirus (HIV-1)
# [25] = molecular target: HIV-1 envelope glycoprotein (Env) of isolate 92WR021 (HIV-1)
# [26] = molecular target: HIV-1 Env of isolate MG RM-C-022 (HIV-1)
# [27] = molecular target: HIV-1 Env of isolate MG RM-D-011 (subtype D) (HIV-1)
# [28] = molecular target: HIV-1 Env of isolate 92UG114 (subtype D) (HIV-1)
# [29] = molecular target: HIV-1 envelope glycoprotein (Env) of isolate 92WR020 (HIV-1)
# [30] = molecular target: HIV-1 Env of isolate IAVI-C22 (Clade C) (HIV-1)
# [31] = molecular target: HIV-1 Env of pseudovirus MGRM-F1-013 (clade F) (HIV-1)
# [32] = molecular target: HIV-1 Env of isolate 92BR020 (Clade B) (HIV-1)
# [33] = molecular target: HIV-1 Env of isolate NL43 (positive control) (HIV-1)
# [34] = molecular target: HIV-1 Env of isolate APV-6 (Clade B) (HIV-1)
# Chain of PGT-141 (4964_G22; 4993_K13) (antibody) (VH): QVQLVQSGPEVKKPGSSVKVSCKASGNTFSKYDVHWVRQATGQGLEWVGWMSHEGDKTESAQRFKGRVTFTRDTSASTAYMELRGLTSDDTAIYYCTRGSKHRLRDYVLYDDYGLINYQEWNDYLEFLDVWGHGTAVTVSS
# Chain of PGT-141 (4964_G22; 4993_K13) (antibody) (VL): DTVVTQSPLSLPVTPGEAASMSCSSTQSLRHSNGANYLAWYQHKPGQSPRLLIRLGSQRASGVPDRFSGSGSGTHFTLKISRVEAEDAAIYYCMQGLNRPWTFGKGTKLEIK
# Chain of PGT-142 (4995_E20) (antibody) (VH): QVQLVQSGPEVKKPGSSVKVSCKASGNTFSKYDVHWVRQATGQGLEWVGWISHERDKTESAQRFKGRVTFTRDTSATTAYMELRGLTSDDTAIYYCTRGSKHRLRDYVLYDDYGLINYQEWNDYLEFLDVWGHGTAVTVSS
# Chain of PGT-143 (4980_N08) (antibody) (VH): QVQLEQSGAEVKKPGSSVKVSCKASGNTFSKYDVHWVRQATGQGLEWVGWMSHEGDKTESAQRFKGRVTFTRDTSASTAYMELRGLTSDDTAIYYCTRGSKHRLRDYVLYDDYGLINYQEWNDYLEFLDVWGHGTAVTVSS
# Chain of PGT-143 (4980_N08) (antibody) (VL): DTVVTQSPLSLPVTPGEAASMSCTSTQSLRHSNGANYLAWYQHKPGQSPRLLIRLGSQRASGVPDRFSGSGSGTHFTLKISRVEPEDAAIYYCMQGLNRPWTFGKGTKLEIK
# Chain of PGT-144 (4970_K22) (antibody) (VH): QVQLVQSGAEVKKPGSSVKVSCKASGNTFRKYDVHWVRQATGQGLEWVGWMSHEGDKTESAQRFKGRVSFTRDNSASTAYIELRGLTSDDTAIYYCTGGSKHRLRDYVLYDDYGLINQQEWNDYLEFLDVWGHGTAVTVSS
# Chain of PGT-144 (4970_K22) (antibody) (VL): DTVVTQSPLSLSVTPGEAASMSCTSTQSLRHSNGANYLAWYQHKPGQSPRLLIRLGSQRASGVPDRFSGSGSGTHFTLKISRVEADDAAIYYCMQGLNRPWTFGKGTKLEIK
Substance,Fold IC50 increase relative to wild-type [2],"IC50, pseudovirus neutralization [13]","IC50, pseudovirus neutralization [14]","IC50, pseudovirus neutralization [15]","IC50, pseudovirus neutralization [16]","IC50, pseudovirus neutralization [17]","IC50, pseudovirus neutralization [18]","IC50, pseudovirus neutralization [19]","IC50, pseudovirus neutralization [20]",also measured
5136_H01 (PGT-131) (antibody),19 fold,–,–,–,–,–,–,–,–,Fold IC50 increase relative to wild-type [1]: 1.4 fold; Fold IC50 increase relative to wild-type [3]: 2 fold; Fold IC50 increase relative to wild-type [4]: 1.3 fold; Fold IC50 increase relative to wild-type [5]: > 170 fold
5141_B17 (PGT-126) (antibody),2.2 fold,–,–,–,–,–,–,–,–,"IC50, pseudovirus neutralization [6]: 0.014 µg/mL; Fold IC50 increase relative to wild-type [1]: 5 fold; IC50, pseudovirus neutralization [7]: 0.015 µg/mL; IC50, pseudovirus neutralization [8]: 1.35 µg/mL; IC50 (µg/mL), pseudovirus neutralization [9]: > 50 µg/mL; IC50, pseudovirus neutralization (HIV-1 APV13 Env (HIV-1)): 0.012 µg/mL; IC50, pseudovirus neutralization [10]: 0.0639 µg/mL; Fold IC50 increase relative to wild-type [3]: 0.2 fold"
5145_B14 (PGT-127) (antibody),1.8 fold,–,–,–,–,–,–,–,–,"IC50, pseudovirus neutralization [6]: 0.029 µg/mL; IC50, pseudovirus neutralization [7]: 0.059 µg/mL; IC50 (µg/mL), pseudovirus neutralization [9]: > 50 µg/mL; Fold IC50 increase relative to wild-type [11]: 2.6 fold; Fold IC50 increase relative to wild-type [12]: 0.5 fold; Fold IC50 increase relative to wild-type [5]: 0.93 fold"
PGT-141 (4964_G22; 4993_K13) (antibody),–,0.0563 µg/mL,> 10 µg/mL,5.08 µg/mL,> 10 µg/mL,2.35 µg/mL,0.856 µg/mL,0.616 µg/mL,> 10 µg/mL,–
PGT-142 (4995_E20) (antibody),–,0.0578 µg/mL,> 10 µg/mL,5.42 µg/mL,> 10 µg/mL,1.23 µg/mL,0.712 µg/mL,0.393 µg/mL,> 10 µg/mL,–
PGT-143 (4980_N08) (antibody),–,0.0657 µg/mL,> 10 µg/mL,4.43 µg/mL,> 10 µg/mL,1.82 µg/mL,0.585 µg/mL,0.618 µg/mL,> 10 µg/mL,–
PGT-144 (4970_K22) (antibody),–,4.02 µg/mL,> 10 µg/mL,> 10 µg/mL,> 10 µg/mL,> 10 µg/mL,> 10 µg/mL,5.12 µg/mL,> 10 µg/mL,–
PGV04 (antibody),–,–,–,–,–,–,–,–,–,"IC50 (µg/mL), pseudovirus neutralization [21]: 0.086 µg/mL; IC50 [22]: 4.46 µg/mL; IC50 (µg/mL), pseudovirus neutralization [23]: > 50 µg/mL; IC50, single-round pseudovirus neutralization [24]: 0.166 µg/mL; IC50 [25]: 0.038 µg/mL; IC50 (µg/mL), pseudovirus neutralization [26]: 18.3 µg/mL; IC50 (µg/mL), pseudovirus neutralization [27]: 0.025 µg/mL; IC50 (µg/mL), pseudovirus neutralization [28]: 0.461 µg/mL; IC50 [29]: 0.055 µg/mL"
b12 (antibody),–,–,–,–,–,–,–,–,–,IC90 (neutralization of pseudovirus) [30]: 29.6 µg/mL; IC50 [31]: > 50 µg/mL; IC90 (neutralization of pseudovirus) [32]: > 50 µg/mL; IC90 (neutralization of pseudovirus) [33]: 0.28 µg/mL; IC90 (neutralization of pseudovirus) [34]: > 50 µg/mL
